Data on 72 sequences can be found in the supplement of paper PMC10567573.

± gives the standard deviation.

This series is described as follows: protein stability index of a GFP-peptide fusion (GPS, HEK-293T) (PSI 1-6); higher = more stable.
[1] abbreviates: treatment: DMSO, c terminus: a fixed tail appended.
The mark [2] stands for this setting: treatment: MLN4924 1 uM, 8 h, c terminus: a fixed tail appended.
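Further: 24-mer peptide tiles fused after GFP, lentivirally expressed, FACS-sorted into six equal bins by GFP/DsRed ratio, decoded by Illumina sequencing, PSI is the read-weighted mean bin number.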

In turn, QALLKENRLLQEENRTLQVLRAEH [CBY2] gave a protein stability index under setting [1] of 4.02 ± 0.2 and a protein stability index under setting [2] of 4.2 ± 0.065.

As to QAMFDTLGIPKSTTSDIPHMLNQV [FAM98B], the protein stability index reads like this: under setting [1], 3.18 ± 0.23; under setting [2], 3.23 ± 0.26.

For the sequence QCSNRIGSMKIKSSWDIDGRATKR [FBXO34], the protein stability index runs as follows: under setting [1], 3.28 ± 0.2; under setting [2], 3.52 ± 0.28.

In the case of QDIENALSTSSSPSGTPTNLRRHV [DLC1], the protein stability index came to 4.96 ± 0.17 under setting [1] and 4.94 ± 0.2 under setting [2].

For the sequence QDLCCRAVVSCTPVHLVDKLPLPI [RAB40B], the protein stability index is, setting by setting: under setting [1], 2.4 ± 0.27; under setting [2], 2.09 ± 0.56.

With QEDAPMIEPLVPEEKMETKTESSG [EPB41L3], the protein stability index by setting is: under setting [1], 5.69 ± 0.17; under setting [2], 5.63 ± 0.13.

Regarding QEDKALWEEEKALWVEERALLEGE [CCDC70], the protein stability index under setting [1] is 5.09 ± 0.3 and the protein stability index under setting [2] was found to be 5.17 ± 0.33.

With QEEEQAETPMAPVPLGPLGETYCE [TRIM15], the protein stability index is 5.4 ± 0.17 under setting [1] and 5.57 ± 0.16 under setting [2].

Take QEENKSLREENKALREENRMLSKE [CBY2]: the protein stability index is, setting by setting: under setting [1], 5.56 ± 0.47; under setting [2], 5.587 ± 0.023.

QELIQEAKPRATWTLKLDGNLQLD [RTP4]: the protein stability index runs as follows: under setting [1], 3.886 ± 0.038; under setting [2], 3.82 ± 0.32.

Take QEQVAGGEAQPGLPQEDPSTSQGC [FEM1A]: the protein stability index amounted to 5.34 ± 0.12 under setting [1] and 5.42 ± 0.43 under setting [2].

On to QEVFEPPHYELCTLRGTGATADFA [NETO1], for which the protein stability index by setting is: under setting [1], 3.91 ± 0.28; under setting [2], 3.88 ± 0.26.

With QEYAAKIINTKKLSARDHQKLERE [CAMK2A], the protein stability index reads like this: under setting [1], 4.71 ± 0.22; under setting [2], 4.78 ± 0.19.

Sequence QFEANGYFFKRPYPFVLFYSKFHG [KMT2E] showed a protein stability index under setting [2] of 2.91 ± 1.9.

As for QFRMAQEEARRNRLMRDMAQLRLQ [SMG5], the protein stability index by setting is: under setting [1], 2.95 ± 0.21; under setting [2], 3.25 ± 0.26.

QGLLGRSPPTRPVPGHRSERAIRT [SPRY1] displayed a protein stability index under setting [1] of 4.51 ± 0.21 and a protein stability index under setting [2] of 4.47 ± 0.2.

QIVTKKIDLSHVTSKCGSLKNIRH [MAP2] yielded a protein stability index under setting [1] of 2.67 ± 0.039 and a protein stability index under setting [2] of 2.71 ± 0.2.

In the case of QIYHCTKRKEEECSTTDHPYKKPY [TBX5], the protein stability index runs as follows: under setting [1], 3.92 ± 0.095; under setting [2], 4.25 ± 0.26.

With QKGLGGAMVWALDLDDFAGFSCNQ [CHIT1], the protein stability index was determined as 2.31 ± 0.32 under setting [1] and 2.42 ± 0.16 under setting [2].

Take QKSVTRSCLLEEEEESGEEAAEAM [POP5]: the protein stability index is, setting by setting: under setting [1], 5.37 ± 0.42; under setting [2], 5.47 ± 0.27.

On to QLDSRYWRITNAKGDVEEVQGPGV [FBXO3], for which the protein stability index is 4.14 ± 0.22 under setting [1] and 4.22 ± 0.14 under setting [2].

Regarding QLEVTCTPYLKETLNSIWNVEDHI [POMT2], the protein stability index turned out to be 2.51 ± 0.32 under setting [1] and 2.44 ± 0.34 under setting [2].

Take QLLEDAILIIQGVLSDINLKKGES [NET1]: the protein stability index runs as follows: under setting [1], 3.37 ± 0.24; under setting [2], 3.77 ± 0.19.

In the case of QLLTLRELEMIGFIENNVSKLSLL [TRIP13], the protein stability index under setting [1] worked out at 2.51 ± 0.28 and the protein stability index under setting [2] came out at 2.66 ± 0.52.

The sequence QLRSDVCTPGGTTIYGLHALEQGG [PYCR3] gave a protein stability index under setting [1] of 3.69 ± 0.23 and a protein stability index under setting [2] of 3.61 ± 0.51.

For QLSMLPHLADLVSYSIQKVIGFAK [VDR], the protein stability index is, setting by setting: under setting [1], 2.28 ± 0.2; under setting [2], 2.48 ± 0.5.

Turning to QLSPNKHFSLRVQSRANGVKYPEL [PCDHGA10], the protein stability index runs as follows: under setting [1], 3 ± 0.18; under setting [2], 3.02 ± 0.23.

The sequence QNEEYLLTYINEDRISTTFRLTTL [PLK2] had a protein stability index under setting [1] of 2.6 ± 0.37 and a protein stability index under setting [2] of 2.29 ± 0.58.

Turning to QNQEYKMLLDIKTRLEQEIATYRS [KRT15], the protein stability index is, setting by setting: under setting [1], 3.31 ± 0.18; under setting [2], 3.46 ± 0.37.

In the case of QPCFFQDISMEIPQEFQKTVSTMY [SCAMP3], the protein stability index under setting [1] came out at 2.55 ± 0.4 and the protein stability index under setting [2] is 2.64 ± 0.23.

As for QPGPSGAPAQRATRGFLRSPSSDL [RETREG3], the protein stability index was 3.97 ± 0.24 under setting [1] and 4.27 ± 0.23 under setting [2].

In the case of QPGTNCALAIKVNLCGHWYYSKAC [ADAMTSL2], the protein stability index by setting is: under setting [1], 2.7 ± 0.72; under setting [2], 2.75 ± 0.45.

QPKEKIQAIIESCSRQFPEFQERA [NOL4L] returned a protein stability index under setting [1] of 3.7 ± 0.36 and a protein stability index under setting [2] of 3.85 ± 0.1.

Consider QPLEGGTPNSAGGPGAHILRRKSP [ADAMTS4], for which the protein stability index was 5.34 ± 0.43 under setting [1] and 5.37 ± 0.17 under setting [2].

With QPPNAEEESGSSSASEEEDTKPKP [INTS3], the protein stability index turned out to be 5.72 ± 0.23 under setting [1] and 5.65 ± 0.21 under setting [2].

On to QPRKGGADWLGLKDEDLDLFPASP [FBF1], for which the protein stability index came out at 4.71 ± 0.1 under setting [1] and 4.79 ± 0.17 under setting [2].

As to QQQVKTNGAGVTVLRREISELRTK [FBXO28], the protein stability index reads like this: under setting [1], 4.32 ± 0.19; under setting [2], 4.44 ± 0.32.

For the sequence QRAEMLPKTSGTRATSLGRPEEEE [CPOX], the protein stability index under setting [1] was found to be 5.47 ± 0.37 and the protein stability index under setting [2] is 5.49 ± 0.28.

With QRAFSIQTPEQYYFCYKAILEFAE [PTPN9], the protein stability index reads like this: under setting [1], 2.16 ± 0.29; under setting [2], 2.16 ± 0.35.

With QRELHSHVTNAMVLVNVLQAIYVI [DHCR7], the protein stability index by setting is: under setting [1], 2.61 ± 0.59; under setting [2], 2.78 ± 0.61.

Take QRLIKKVQEAVLDKWVNDPHRMDR [GOLPH3]: the protein stability index is 2.34 ± 0.19 under setting [1] and 2.27 ± 0.2 under setting [2].

As to QRVKLKLWDTSGQGRFCTIFRSYS [RAB40A], the protein stability index was 2.3 ± 0.29 under setting [1] and 2.14 ± 0.33 under setting [2].

QSSPSFAEKCLDFLVDMFNDEIEE [INTS4] displayed a protein stability index under setting [1] of 2.87 ± 0.1 and a protein stability index under setting [2] of 3.18 ± 0.2.

QVADVPEKPRVPAFACQVAGCCQV [ZNF511] displayed a protein stability index under setting [1] of 3.44 ± 0.16 and a protein stability index under setting [2] of 3.61 ± 0.35.

For the sequence QVEIFSTNPDLYPVRRIDGLTDVS [IQUB], the protein stability index runs as follows: under setting [1], 3.71 ± 0.29; under setting [2], 3.68 ± 0.27.

Turning to QVGRGLRYIHSMSLVHMDIKPSNI [WEE1], the protein stability index is, setting by setting: under setting [1], 2.15 ± 0.3; under setting [2], 2.08 ± 0.25.

For QVQLGLRCCGAASYQDWQQNLYFN [TSPAN10], the protein stability index under setting [1] was determined as 3.12 ± 1.1 and the protein stability index under setting [2] is 2.81 ± 0.91.

On to QYLRLPDAPEQRLRVMTTNIRSAR [ELOA2], for which the protein stability index reads like this: under setting [1], 3.58 ± 0.31; under setting [2], 3.9 ± 0.16.

Consider QYSSHHTAEKRKRLGELFNPYYDP [CHGB], for which the protein stability index is 3.13 ± 0.25 under setting [1] and 3.28 ± 0.2 under setting [2].

Turning to QYTVPGTEGVTQLKLTVVEDVTVG [ZFYVE21], the protein stability index runs as follows: under setting [1], 3.86 ± 0.19; under setting [2], 3.98 ± 0.41.

As to RAESTANAGQSDNRSLAEACSEGD [ANKRD17], the protein stability index turned out to be 5.55 ± 0.24 under setting [1] and 5.53 ± 0.16 under setting [2].

On to RAFLQTYSHEVSLTADSRKSHLIF [PCDHGA10], for which the protein stability index runs as follows: under setting [1], 2.2 ± 0.34; under setting [2], 2.08 ± 0.24.

In the case of RAKDLVELDPEVEGTKPSATEMIW [GOLPH3L], the protein stability index under setting [1] is 4.07 ± 0.23 and the protein stability index under setting [2] stood at 4.13 ± 0.45.

As to RALHWAAYMGHLDVVALLINHGAE [ANKRD44], the protein stability index reads like this: under setting [1], 2.56 ± 0.43; under setting [2], 3.12 ± 0.66.

Consider RAPQLHLEYRFYEQLGSGDGIPQV [CSNK1G3], for which the protein stability index came out at 3.36 ± 0.21 under setting [1] and 3.34 ± 0.1 under setting [2].

As for RARIAKGLRLCRPKAKAKAKAKAK [RPL29], the protein stability index by setting is: under setting [1], 4.16 ± 0.48; under setting [2], 4 ± 0.38.

Regarding RASALLASCSKNCTNSPAIVRFSG [FBXO34], the protein stability index was found to be 2.24 ± 0.24 under setting [1] and 2.59 ± 0.19 under setting [2].

As for RCEELEDARYKLHHHLHKTLREIT [TEKT4], the protein stability index by setting is: under setting [1], 2.81 ± 0.29; under setting [2], 2.8 ± 0.25.

Sequence RDAGATPSAAGAPASAPGEPRQRR [ANKRD9] registered a protein stability index under setting [1] of 5.57 ± 0.27 and a protein stability index under setting [2] of 5.59 ± 0.19.

For RDFRPTDQEEIKTLERYMCSRFFI [TENT5C], the protein stability index runs as follows: under setting [1], 2.63 ± 0.39; under setting [2], 2.71 ± 0.17.

For the sequence RDSAYQSITHYRPVSASRSSLDLS [EMD], the protein stability index turned out to be 3.41 ± 0.18 under setting [1] and 3.58 ± 0.22 under setting [2].

On to REAQQYSEALASTRILKHSPESSR [GLIPR2], for which the protein stability index runs as follows: under setting [1], 4.92 ± 0.27; under setting [2], 4.92 ± 0.3.

Take REFDVRQTPQVNINPFTPDSLLLH [WEE1]: the protein stability index under setting [1] is 3.41 ± 0.47 and the protein stability index under setting [2] was found to be 3.52 ± 0.15.

Turning to REHRVRRIHVRRHITHDERPHGQQ [KCTD13], the protein stability index is, setting by setting: under setting [1], 4.36 ± 0.21; under setting [2], 4.45 ± 0.29.

Consider REQSRLTSCLKKREEMKLKECVSI [TNFSF13B], for which the protein stability index is 3.62 ± 0.11 under setting [1] and 3.81 ± 0.24 under setting [2].

With RERKKLVLENLEDSCVLTGPDDSL [TRIB3], the protein stability index reads like this: under setting [1], 4.91 ± 0.26; under setting [2], 4.95 ± 0.36.

In the case of RFCLVPSMEGVRWAFSCGTWLPSR [AASDHPPT], the protein stability index under setting [1] was determined as 2.48 ± 0.79 and the protein stability index under setting [2] amounted to 2.32 ± 0.056.

RFGDRMFYKDWWNSTSYSNYYRTW [SOAT1]: the protein stability index reads like this: under setting [1], 1.92 ± 0.23; under setting [2], 2.04 ± 0.34.

As for RFLRMLLRLADEFGVAVVITNQVV [RAD51], the protein stability index amounted to 2.46 ± 0.45 under setting [1] and 2.45 ± 0.84 under setting [2].

RGQARRLAPNFRWAIPNRQINDGM [BEX3]: the protein stability index under setting [1] amounted to 3.1 ± 0.24 and the protein stability index under setting [2] is 3.03 ± 0.47.

As to RHMEAVKAQLLEQAQGQLRELLDR [SOAT2], the protein stability index by setting is: under setting [1], 3.07 ± 0.37; under setting [2], 3.08 ± 0.086.

With RIHVRRHITHDERPHGQQIVFKD [KCTD13], the protein stability index (treatment: DMSO, c terminus: native) was determined as 4.31 ± 0.24 and the protein stability index (treatment: MLN4924 1 uM, 8 h, c terminus: native) amounted to 4.33 ± 0.32.
